± gives the half width of the 95% confidence interval.
What was measured:
[1] = folding stability dG unfold (combined trypsin and chymotrypsin); higher = more stable
How it was run: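 Digests were run with trypsin and chymotrypsin at 11 concentrations in threefold dilutions, plus a no-protease condition, on designed mini-proteins in a PA-tagged cDNA display construct. The mini-proteins were under 80 residues, had no cysteine, and were kept only when AlphaFold2 dimer inter-PAE was above 15. After sequencing, Bayesian fitting of the counts gave K50, from which unfolding free energy was derived against a sequence-predicted unfolded-state K50 and a shared folded-state K50, per protease or combined.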

[2] = folding stability dG unfold from trypsin proteolysis; higher = more stable
Method: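 Folding stability of de novo designed mini-proteins (<80 aa, no Cys; designed by TrROS, TrMRF, ProteinMPNN and the joint model) was measured by cDNA display proteolysis with trypsin and chymotrypsin. Each protease was used at 11 concentrations in a threefold dilution series plus a no-protease condition. K50 was inferred by Bayesian fitting of sequencing counts, and dG unfold was derived against a sequence-predicted unfolded-state K50 (Tsuboyama et al. method). Sequences shown include variable-length N-terminal GS-type padding (SAGGSAGG...) inside a display construct carrying a PA tag. Rows were kept only if the AF2 dimer inter-PAE was >15, to exclude likely homo-oligomers.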

| Sequence | folding stability dG unfold [1] [kcal/mol] | folding stability dG unfold [2] [kcal/mol] |
| --- | --- | --- |
| SAGMDPNEKREVVVELEFEVPDPSNPEGGSVPIRVTLKATGKGTEEEAEELKKKAEEEAREKVEKGELLSAG [r5_532_JUSTAS] | -0.287 ± 0.56 | 0.687 ± 0.15 |
| SAGGTVKVTVEVRDEETGETVTVEVEVEPAPAPPVVVLPAEDLEKLRELGFPENAVLDEETNELVIFSAGGS [r16_194_TrROS_Hall] | -0.204 ± 0.24 | 0.537 ± 0.085 |
| SAGGSAGGSAGPITITDIPSEEEAAALIAARPGVEVERKPVTLSEEERWEVTLTLPGEAASAGGSAGGSAGG [r17_542_JUSTAS] | -0.722 ± 0.18 | 0.157 ± 0.058 |
| SAGGMTEIEPDSEEKAEAEIEKVVEEEAEKALKSEKKNVTIKVDVKVVDPVTGKSKTYPVEKLVKLPSAGGS [r8_163_JUSTAS] | < -1 | -1.4 ± 0.83 |
| SAGGDILLVIPAELFFDEDGKPSEEAVKAIEKAAELAEKLNKEGKPVKIEVKVVPLLPPVSPSDPYVFSAGG [r13_731_TrMRF] | -0.358 ± 0.36 | 0.162 ± 0.055 |
| SAGGSAGGSAGTITTTTDPATGEYTVTIPIASGDGTPVGTIPVTVPKSDPSAAAAFIAATSAGGSAGGSAGG [r11_77_JUSTAS] | -0.438 ± 0.29 | 0.106 ± 0.11 |
| SAGGMGQEELENLPPEVVAGLLAEEALAEAERLGRPNEAVTVEVELGDVPLRIELTADGKIARIEAGSAGGS [r16_431_TrMRF] | < -1 | -0.548 ± 0.14 |
| SAGGKPDIKDIEIDDVEYDPNEGYFRYEVEIKWPGGKERPIEVPMKYEDGRMTPEDIRKMAKKLIKNSAGGS [r16_221_TrROS] | < -1 | 0.423 ± 0.15 |
| SAITIMIPPNQTLEEIADELGFPGIKDVKHEPFEPGYYPATFEFPGDPDREIEIMFNPEPDWMMVEVEDSAG [r14_713_TrROS] | 0.0271 ± 0.13 | 0.809 ± 0.054 |
| SAGGSAGGSVKVTTEPLPNGERLVTVTAYLKSKPYPVLMPYPASATPEQVKETALRIEKELEKSAGGSAGGS [r12_69_TrMRF] | < -1 | -0.999 ± 0.49 |
| SAGGSAGGSAGNMKEVEFTIPGAPPDELADNLPPGIKDVEIERNPEARENGGYSIKAYVDSAGGSAGGSAGG [r11_1002_TrROS] | < -1 | -0.0749 ± 0.17 |
| SAGGSAGGSTIREILDALPPGREIDVERHPNNGHYEISIQNPNGPNPTFQIDDPVTKEIAEWISAGGSAGGS [r12_174_TrROS] | -0.0634 ± 0.11 | 0.65 ± 0.031 |
| SAGGSAGGSAGITIEFPEEENNFRVENPNDGKKHEIPGTPDEIKEYALDKFPGRPIKIHPSAGGSAGGSAGG [r11_614_TrROS] | -0.511 ± 0.43 | 0.11 ± 0.079 |
| SMTITHKIPPDDPEKAEEEIKEKIEKETGLKVEKVEVPEGDGATLVVTIDKEKPVVTAEVVPLLPDGTPVSA [r9_173_JUSTAS] | 0.191 ± 0.35 | 0.85 ± 0.17 |
| SAGGSANMREVEIPMTPNDLEEALEEVEDAPPGRNVSVNMTNPEEGKPYPIKIRVNENGKLTEIEFSAGGSA [r15_228_TrROS] | -0.179 ± 0.27 | 0.501 ± 0.077 |
| IKIRFPDGHEITEIDDLSFSGNGYIEINVKVRNPENPQTQPMPIYIPVPPVPPPPVKIERDPGNGKWKYEDS [r1_411_TrROS] | -0.179 ± 0.33 | 0.799 ± 0.07 |
| SAGGSAGGSAGGYKVKVYNPENGKPQEIPLPPNDIPELLDKLPNGPWWIRVKDPDRWIPLSAGGSAGGSAGG [r7_188_TrROS] | -0.562 ± 0.57 | -1.05 ± 0.51 |
| SAGGSAGGSAGGVPEEEIRERVEAAGLTAPDAEVVYETPENITVRVTVPPTGLVFERLESAGGSAGGSAGGS [r10_604_JUSTAS] | -0.367 ± 0.1 | 0.0893 ± 0.048 |
| SAGGSAGGSATVIIMVDPDDIEEALKEAPPNSKVMIHNPDNGYMFEITPNKLEIVEPIPPGDSAGGSAGGSA [r18_246_TrROS] | -0.0908 ± 0.23 | 0.279 ± 0.058 |

| Sequence | folding stability dG unfold [1] [kcal/mol] | folding stability dG unfold [2] [kcal/mol] |
| --- | --- | --- |
| SAGGSAGGSAGGMTEYVPGEGKVLVTYPDGTTKVVPVDPATPEEFRAELEAAGVPEIKPLSAGGSAGGSAGG [r7_139_JUSTAS] | 0.198 ± 0.085 | 0.762 ± 0.027 |
| SAGGSAGGSANSSSLPPNYVTPLPITVTDSRPGSYMPLEEREARAQALAEANPGVTVTVVRESAGGSAGGSA [r18_499_JUSTAS] | < -1 | -0.373 ± 0.099 |
| SAGMVVKVTVITEDEKPIEVYLPVKDPEKYPPEKVEEAAKEIAKKLEEEGIPVKKVSVEPIAPKPGLLSAGG [r19_334_TrMRF] | 0.0993 ± 0.4 | 0.544 ± 0.087 |
| SAGGSAGGSAGGPEYIQINIKIYDPDNPKEREIPISMPVEEIEKIAKEFMPPGYRVEIISAGGSAGGSAGGS [r10_397_TrROS] | < -1 | 0.152 ± 0.14 |
| SAGGSYRIEIEDIDPKPQWRPNPNGEWEPRPTLTIEVKIERNPDEMPEKEKQKIEEQAERIAKKFFSAGGSA [r2_40_TrROS] | < -1 | -0.436 ± 0.4 |
| SAGGSAGGSMTVKKIEIKPPPGGTDLATITTEKVDPSTGKPSLSTSTVTVPKNNPEAIEKFLSSAGGSAGGS [r12_691_JUSTAS] | < -1 | -0.257 ± 0.18 |
| SAMLTTLETTTTTSDSLTVTTSLSLLPDGSLVTTTTVIDTSGNVLSSTTTVEPGPPPVTPENIALMVRLSAG [r14_171_JUSTAS] | 0.125 ± 0.29 | 0.298 ± 0.12 |
| SAGDWMMVEMTVDFPPDQITEEEIKQALQEHFGEVEIDWNPGDGRIPITVYMPPGDMNKIQDALKEAGLSAG [r5_378_TrROS] | 0.218 ± 0.19 | 0.755 ± 0.053 |
| SAGGSAGGSAGGSKKTAVLKVGDKWIPLEIDEDKVTLIYPDGKKEEISLEDIPENTISDASAGGSAGGSAGG [r7_748_TrMRF] | -0.212 ± 0.11 | 0.0901 ± 0.064 |
| SAGGSAGGEYKVYPVKGDLKEFFDEAYKENPGGVRIIDPDTDEVLDFPPDLSLDEFPGTFVVLGSAGGSAGG [r6_857_TrMRF] | < -1 | -0.238 ± 0.13 |
| SMPISAEELAELFPGVVEIKPEPDSTVITAKDPNGTNPVFTLSPAGTVTVTTYTPGSGTTTTTTIPTALLSA [r9_427_JUSTAS] | 0.159 ± 0.071 | 0.681 ± 0.025 |
| SAGGSAGGSSMPPGWSVTSETVVESIIETPNGPIIKVTTSKTTVTPPNGPPSTYTTTSEDPLGSAGGSAGGS [r12_544_JUSTAS] | < -1 | -0.314 ± 0.13 |
| SAGGAMPKTITVTDPTSSREEAEALLASPERLEAIAEEIKPEFPGVDLTVTVSSDPATGTLTITIVSSAGGS [r16_320_JUSTAS] | < -1 | 0.289 ± 0.072 |
| SAGGSAGGSAGPPTSILEVKPGGEVTIKEGGTPVTVPSSVPYINLPEGGSAGSVEVPPELSAGGSAGGSAGG [r11_647_JUSTAS] | -0.314 ± 0.31 | 0.394 ± 0.042 |
| SMSPSETETTTYTRTIPFPKSNPEQAKAEAEKEVRAELEAKGLKIDIPITIEWENDTVTVTIPISVTPPLSA [r9_889_JUSTAS] | -0.144 ± 0.29 | 0.594 ± 0.13 |
| SAGGSAGGSAGGKAVFLKTKTVTRTVTRKTTKNGKEEEVATETVTTVELVEVDLDNGEASAGGSAGGSAGGS [r10_93_TrROS_Hall] |  | -0.708 ± 0.37 |
| SAGGEVKFEKNEDGTITVTVKAESEEEALEALKKLLEEQGFEIEEIKVERLPNGEVKITIKIKPKKPSAGGS [r8_253_TrROS_Hall] |  | 3.65 ± 0.4 |
| SAGVEYEVKVEYDPETGTVTAPVTFPDGPEAIVEIEFEEPGRYKMIIRIEEEEKEFEVDPDAIDEITIESAG [r5_14_TrMRF] |  | -0.551 ± 0.25 |

Source: the supplement of paper PMC12764529
